For one molecule, Kd results are on record in US20190202908A1 (Harvard, published 2019).

The test concerns the target EGFP (UniProt P42212 1-238 = GFP). The test can be described thus: Biacore (SPR). Background: SPR reads the build-up and loss of mass on a sensor chip optically.

The term Kd denotes a measure of binding affinity in units of concentration. Low readings indicate tighter binding, high ones weaker binding.

B1: GBP6 nanobody alone (VHH)
VHH: QVQLQESGGGSVQTGGSLRLSCAVSPYIGSRISLGWFRQAPGKVREGVALINSRDGSTYYADTVKGRFTISQGDANTVYLQMNSLKPEDTAIYYCAARWGQITDIQALAVASFPDWGQGTQVTVSS
notes: also called GPB6
For the molecule B1, the equilibrium dissociation constant (Kd) was 2.26 nM. This counts as single-digit nanomolar.
